Results reported in IntAct's records for PubMed 16278218.

B1: Heat shock factor protein 1 (Homo sapiens), Q00613 (parent)
chain: MDLPVGPGAAGPSNVPAFLTKLWTLVSDPDTDALICWSPSGNSFHVFDQGQFAKEVLPKYFKHNNMASFVRQLNMYGFRKVVHIEQGGLVKPERDDTEFQHPCFLRGQEQLLENIKRKVTSVSTLKSEDIKIRQDSVTKLLTDVQLMKGKQECMDSKLLAMKHENEALWREVASLRQKHAQQQKVVNKLIQFLISLVQSNRILGVKRKIPLMLNDSGSAHSMPKYSRQFSLEHVHGSGPYSAPSPAYSSSSLYAPDAVASSGPIISDITELAPASPMASPGGSIDERPLSSSPLVRVKEEPPSPPQSPRVEEASPGRPSSVDTLLSPTALIDSILRESEPAPASVTALTDARGHTDTEGRPPSPPPTSTPEKCLSVACLDKNELSDHLDAMDSNLDNLQTMLSSHGFSVDTSALLDLFSPSVTVPDMSLPDLDSSLASIQELLSPQEPPRPPEAENSSPDSGKQLVHYTAQPLFLLDPGSVDTGSNDLPVLFELGEGSYFSEGDGFAEDPTISLLTGSEPPKAKDPTVS

Variants of: B1
Conditions: with mapk2_human MAPKAPK2, P49137
Chain of mapk2_human MAPKAPK2, P49137 (P49137 whole entry, looked up): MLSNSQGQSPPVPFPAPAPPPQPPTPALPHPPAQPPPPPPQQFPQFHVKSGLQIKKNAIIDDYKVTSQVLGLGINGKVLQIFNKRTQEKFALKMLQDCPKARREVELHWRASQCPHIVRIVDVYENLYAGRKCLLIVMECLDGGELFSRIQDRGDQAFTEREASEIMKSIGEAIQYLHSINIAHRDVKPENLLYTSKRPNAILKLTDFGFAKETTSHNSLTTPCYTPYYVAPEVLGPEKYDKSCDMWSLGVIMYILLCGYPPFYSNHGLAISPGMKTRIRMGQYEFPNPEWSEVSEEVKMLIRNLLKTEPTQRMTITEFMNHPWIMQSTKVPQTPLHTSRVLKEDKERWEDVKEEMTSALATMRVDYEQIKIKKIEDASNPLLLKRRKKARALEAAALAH

Q: How did the “effect of a mutation on the interaction” value turn out when MDLPVGPGAAGPSNVPAFLTKLWTLVSDPDTDALICWSPSGNSFHVFDQGQFAKEVLPKYFKHNNMASFVRQLNMYGFRKVVHIEQGGLVKPERDDTEFQHPCFLRGQEQLLENIKRKVTDVSTLKSEDIKIRQDSVTKLLTDVQLMKGKQECMDSKLLAMKHENEALWREVASLRQKHAQQQKVVNKLIQFLISLVQSNRILGVKRKIPLMLNDSGSAHSMPKYSRQFSLEHVHGSGPYSAPSPAYSSSSLYAPDAVASSGPIISDITELAPASPMASPGGSIDERPLSSSPLVRVKEEPPSPPQSPRVEEASPGRPSSVDTLLSPTALIDSILRESEPAPASVTALTDARGHTDTEGRPPSPPPTSTPEKCLSVACLDKNELSDHLDAMDSNLDNLQTMLSSHGFSVDTSALLDLFSPSVTVPDMSLPDLDSSLASIQELLSPQEPPRPPEAENSSPDSGKQLVHYTAQPLFLLDPGSVDTGSNDLPVLFELGEGSYFSEGDGFAEDPTISLLTGSEPPKAKDPTVS [S121D] was run?
A: Its value is “decreasing interaction”.

Q: MDLPVGPGAAGPSNVPAFLTKLWTLVSDPDTDALICWSPSGNSFHVFDQGQFAKEVLPKYFKHNNMASFVRQLNMYGFRKVVHIEQGGLVKPERDDTEFQHPCFLRGQEQLLENIKRKVTAVSTLKSEDIKIRQDSVTKLLTDVQLMKGKQECMDSKLLAMKHENEALWREVASLRQKHAQQQKVVNKLIQFLISLVQSNRILGVKRKIPLMLNDSGSAHSMPKYSRQFSLEHVHGSGPYSAPSPAYSSSSLYAPDAVASSGPIISDITELAPASPMASPGGSIDERPLSSSPLVRVKEEPPSPPQSPRVEEASPGRPSSVDTLLSPTALIDSILRESEPAPASVTALTDARGHTDTEGRPPSPPPTSTPEKCLSVACLDKNELSDHLDAMDSNLDNLQTMLSSHGFSVDTSALLDLFSPSVTVPDMSLPDLDSSLASIQELLSPQEPPRPPEAENSSPDSGKQLVHYTAQPLFLLDPGSVDTGSNDLPVLFELGEGSYFSEGDGFAEDPTISLLTGSEPPKAKDPTVS [S121A] was tested. Which “effect of a mutation on the interaction” value did it give?
A: The value was “increasing interaction”.
